Reference: patent publication US20240270831A1

Key:
purchased CTNI antigen [1] = target: purchased CTNI antigen (UniProt P19429); test: fluorescent chromatography card, sandwich; coated on T line; 3 ng/ml
purchased CTNI antigen [2] = target: purchased CTNI antigen (UniProt P19429); test: fluorescent chromatography card, sandwich; coated on T line; 18 ng/ml
purchased CTNI antigen [3] = target: purchased CTNI antigen (UniProt P19429); test: fluorescent chromatography card, sandwich; coated on T line; 0.7 ng/ml
purchased CTNI antigen [4] = target: purchased CTNI antigen (UniProt P19429); test: fluorescent chromatography card, sandwich; coated on T line; 0.04 ng/ml
purchased CTNI antigen [5] = target: purchased CTNI antigen (UniProt P19429); test: fluorescent chromatography card, sandwich; coated on T line; 0.08 ng/ml
purchased CTNI antigen [6] = target: purchased CTNI antigen (UniProt P19429); test: fluorescent chromatography card, sandwich; coated on T line; 0.15 ng/ml
purchased CTNI antigen [7] = target: purchased CTNI antigen (UniProt P19429); test: fluorescent chromatography card, sandwich; coated on T line; 10.5 ng/ml
purchased CTNI antigen [8] = target: purchased CTNI antigen (UniProt P19429); test: fluorescent chromatography card, sandwich; coated on T line; 0 ng/ml (blank, no antigen)
purchased CTNI antigen [9] = target: purchased CTNI antigen (UniProt P19429); test: fluorescent chromatography card, sandwich; coated on T line, other CTNI antibody on fluorescent microspheres; 50 ng/ml

Sequence of UniProt P19429 (P19429 2-210 limits assumed): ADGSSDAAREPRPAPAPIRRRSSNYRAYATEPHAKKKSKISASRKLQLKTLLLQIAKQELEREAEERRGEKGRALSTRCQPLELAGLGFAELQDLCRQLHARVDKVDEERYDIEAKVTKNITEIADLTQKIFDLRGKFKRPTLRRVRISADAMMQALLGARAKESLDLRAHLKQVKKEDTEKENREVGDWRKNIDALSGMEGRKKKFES

B1: Anti-cTnI-21C5 monoclonal antibody (antibody, from another filing, V domains shown)
VH: EVQLQQSGPELVKPGASVKMSCKASGYSFTLYVVHWVKQKPGQGLEWIGYIQPYLDGTRYNEKFKGKATLTVDKSSSTAFMELSSLTSEDSAVYYCARTGYGGYGLAWLAYWGQGTLVTVSA
VL: QAVVIQESALTTSPGETVTLTCRSSSGAATTSQYANWVQEKPDHLFTGLIGGSNNRAPGVPARFSGSLIGDKAALTITGAQTEDEAIYFCAIVYSNHWVFGGGTKLTVLG
- fluorescence reading (name not given) (purchased CTNI antigen [1]): 0.18
- fluorescence reading (name not given) (purchased CTNI antigen [2]): 0.746
- fluorescence reading (name not given) (purchased CTNI antigen [3]): 0.045
- fluorescence reading (name not given) (purchased CTNI antigen [4]): 0.017
- fluorescence reading (name not given) (purchased CTNI antigen [5]): 0.02
- fluorescence reading (name not given) (purchased CTNI antigen [6]): 0.026
- fluorescence reading (name not given) (purchased CTNI antigen [7]): 0.45
- fluorescence reading (name not given) (purchased CTNI antigen [8]): 0.015
- fluorescence reading (name not given) (purchased CTNI antigen [9]): 2.17
